Experimental data taken from patent US20250161472A1 (BIOATLA, published 2025).

Experiments:
[1] = target: T1, human ROR2 (receptor tyrosine kinase-like orphan receptor 2) (human, UniProt Q01974 34-403, limits assumed); assay: affinity ELISA on human ROR2, pH 6.0; parameters: unit not given here
T1 construct: Antigen of the ELISA, SPR and pH titration assays; also called hROR2

[2] = target: T1, human ROR2 (receptor tyrosine …); assay: affinity ELISA on human ROR2, pH 7.4; parameters: unit not given here

T1 sequence (Q01974 34-403 limits assumed): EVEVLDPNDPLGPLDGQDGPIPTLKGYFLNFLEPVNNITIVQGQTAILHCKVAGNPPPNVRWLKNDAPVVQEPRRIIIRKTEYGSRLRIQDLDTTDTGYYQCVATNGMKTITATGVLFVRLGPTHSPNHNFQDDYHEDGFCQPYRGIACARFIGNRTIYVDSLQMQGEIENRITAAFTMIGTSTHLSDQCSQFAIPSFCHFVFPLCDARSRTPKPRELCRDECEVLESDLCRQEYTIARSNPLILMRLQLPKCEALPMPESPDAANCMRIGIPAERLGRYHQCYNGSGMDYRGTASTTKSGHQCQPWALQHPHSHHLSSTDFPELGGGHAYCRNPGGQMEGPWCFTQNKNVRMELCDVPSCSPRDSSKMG

Binder | Affinity ELISA, pH 6.0 [1] | Affinity ELISA, pH 7.4 [2]
HC-A097I (antibody, V domains shown, CPE single point mutant of parent VH 48.6-HC-WT) VH: EVQLQQSGPELVKPGASVKISCKTSGYTFTEYTMHWMKQSHRKSLEWIGGINTNNGGTGYNQKFKGKATLTVDKSSSTAYMELRSLTSEDSAVYFCIRGSLYSYGNSYFDYWGQGTLVTVSS VL: QIVLTQSPAIMSASPGEKVTITCSATSSVSYMHWFQQKPGTSPKLWIYGTSNLASGVPARFSGSGSGTSYSLTISRMEAEDAATYYCQQRSSYPFTFGQGTKVEIK | 1.89 | 1.73
HC-A097M (antibody, V domains shown, CPE single point mutant of parent VH 48.6-HC-WT) VH: EVQLQQSGPELVKPGASVKISCKTSGYTFTEYTMHWMKQSHRKSLEWIGGINTNNGGTGYNQKFKGKATLTVDKSSSTAYMELRSLTSEDSAVYFCMRGSLYSYGNSYFDYWGQGTLVTVSS VL: QIVLTQSPAIMSASPGEKVTITCSATSSVSYMHWFQQKPGTSPKLWIYGTSNLASGVPARFSGSGSGTSYSLTISRMEAEDAATYYCQQRSSYPFTFGQGTKVEIK | 1.98 | 1.7
HC-A097T (antibody, V domains shown, CPE single point mutant of parent VH 48.6-HC-WT) VH: EVQLQQSGPELVKPGASVKISCKTSGYTFTEYTMHWMKQSHRKSLEWIGGINTNNGGTGYNQKFKGKATLTVDKSSSTAYMELRSLTSEDSAVYFCTRGSLYSYGNSYFDYWGQGTLVTVSS VL: QIVLTQSPAIMSASPGEKVTITCSATSSVSYMHWFQQKPGTSPKLWIYGTSNLASGVPARFSGSGSGTSYSLTISRMEAEDAATYYCQQRSSYPFTFGQGTKVEIK | 1.83 | 1.69
HC-F029E (antibody, V domains shown, CPE single point mutant of parent VH 48.6-HC-WT) VH: EVQLQQSGPELVKPGASVKISCKTSGYTETEYTMHWMKQSHRKSLEWIGGINTNNGGTGYNQKFKGKATLTVDKSSSTAYMELRSLTSEDSAVYFCARGSLYSYGNSYFDYWGQGTLVTVSS VL: QIVLTQSPAIMSASPGEKVTITCSATSSVSYMHWFQQKPGTSPKLWIYGTSNLASGVPARFSGSGSGTSYSLTISRMEAEDAATYYCQQRSSYPFTFGQGTKVEIK | 1.34 | 0.742
HC-G105D (antibody, V domains shown, CPE single point mutant of parent VH 48.6-HC-WT) VH: EVQLQQSGPELVKPGASVKISCKTSGYTFTEYTMHWMKQSHRKSLEWIGGINTNNGGTGYNQKFKGKATLTVDKSSSTAYMELRSLTSEDSAVYFCARGSLYSYDNSYFDYWGQGTLVTVSS VL: QIVLTQSPAIMSASPGEKVTITCSATSSVSYMHWFQQKPGTSPKLWIYGTSNLASGVPARFSGSGSGTSYSLTISRMEAEDAATYYCQQRSSYPFTFGQGTKVEIK | 0.509 | 0.379
HC-I051E (antibody, V domains shown, CPE single point mutant of parent VH 48.6-HC-WT) VH: EVQLQQSGPELVKPGASVKISCKTSGYTFTEYTMHWMKQSHRKSLEWIGGENTNNGGTGYNQKFKGKATLTVDKSSSTAYMELRSLTSEDSAVYFCARGSLYSYGNSYFDYWGQGTLVTVSS VL: QIVLTQSPAIMSASPGEKVTITCSATSSVSYMHWFQQKPGTSPKLWIYGTSNLASGVPARFSGSGSGTSYSLTISRMEAEDAATYYCQQRSSYPFTFGQGTKVEIK | 1.04 | 0.1
HC-L101F (antibody, V domains shown, CPE single point mutant of parent VH 48.6-HC-WT) VH: EVQLQQSGPELVKPGASVKISCKTSGYTFTEYTMHWMKQSHRKSLEWIGGINTNNGGTGYNQKFKGKATLTVDKSSSTAYMELRSLTSEDSAVYFCARGSFYSYGNSYFDYWGQGTLVTVSS VL: QIVLTQSPAIMSASPGEKVTITCSATSSVSYMHWFQQKPGTSPKLWIYGTSNLASGVPARFSGSGSGTSYSLTISRMEAEDAATYYCQQRSSYPFTFGQGTKVEIK | 1.46 | 1.41
HC-M034E (antibody, V domains shown, CPE single point mutant of parent VH 48.6-HC-WT) VH: EVQLQQSGPELVKPGASVKISCKTSGYTFTEYTEHWMKQSHRKSLEWIGGINTNNGGTGYNQKFKGKATLTVDKSSSTAYMELRSLTSEDSAVYFCARGSLYSYGNSYFDYWGQGTLVTVSS VL: QIVLTQSPAIMSASPGEKVTITCSATSSVSYMHWFQQKPGTSPKLWIYGTSNLASGVPARFSGSGSGTSYSLTISRMEAEDAATYYCQQRSSYPFTFGQGTKVEIK | 1.17 | 0.185

The remaining lines, values ahead:

Affinity ELISA, pH 6.0 [1] | Affinity ELISA, pH 7.4 [2] | Binder
1.67 | 1.69 | HC-A097S (antibody, V domains shown, CPE single point mutant of parent VH 48.6-HC-WT) VH: EVQLQQSGPELVKPGASVKISCKTSGYTFTEYTMHWMKQSHRKSLEWIGGINTNNGGTGYNQKFKGKATLTVDKSSSTAYMELRSLTSEDSAVYFCSRGSLYSYGNSYFDYWGQGTLVTVSS VL: QIVLTQSPAIMSASPGEKVTITCSATSSVSYMHWFQQKPGTSPKLWIYGTSNLASGVPARFSGSGSGTSYSLTISRMEAEDAATYYCQQRSSYPFTFGQGTKVEIK
1.68 | 1.4 | HC-D110L (antibody, V domains shown, CPE single point mutant of parent VH 48.6-HC-WT) VH: EVQLQQSGPELVKPGASVKISCKTSGYTFTEYTMHWMKQSHRKSLEWIGGINTNNGGTGYNQKFKGKATLTVDKSSSTAYMELRSLTSEDSAVYFCARGSLYSYGNSYFLYWGQGTLVTVSS VL: QIVLTQSPAIMSASPGEKVTITCSATSSVSYMHWFQQKPGTSPKLWIYGTSNLASGVPARFSGSGSGTSYSLTISRMEAEDAATYYCQQRSSYPFTFGQGTKVEIK
0.828 | 0.318 | HC-G050S (antibody, V domains shown, CPE single point mutant of parent VH 48.6-HC-WT) VH: EVQLQQSGPELVKPGASVKISCKTSGYTFTEYTMHWMKQSHRKSLEWIGSINTNNGGTGYNQKFKGKATLTVDKSSSTAYMELRSLTSEDSAVYFCARGSLYSYGNSYFDYWGQGTLVTVSS VL: QIVLTQSPAIMSASPGEKVTITCSATSSVSYMHWFQQKPGTSPKLWIYGTSNLASGVPARFSGSGSGTSYSLTISRMEAEDAATYYCQQRSSYPFTFGQGTKVEIK
0.616 | 0.421 | HC-G099E (antibody, V domains shown, CPE single point mutant of parent VH 48.6-HC-WT) VH: EVQLQQSGPELVKPGASVKISCKTSGYTFTEYTMHWMKQSHRKSLEWIGGINTNNGGTGYNQKFKGKATLTVDKSSSTAYMELRSLTSEDSAVYFCARESLYSYGNSYFDYWGQGTLVTVSS VL: QIVLTQSPAIMSASPGEKVTITCSATSSVSYMHWFQQKPGTSPKLWIYGTSNLASGVPARFSGSGSGTSYSLTISRMEAEDAATYYCQQRSSYPFTFGQGTKVEIK
1.24 | 0.211 | HC-M034D (antibody, V domains shown, CPE single point mutant of parent VH 48.6-HC-WT) VH: EVQLQQSGPELVKPGASVKISCKTSGYTFTEYTDHWMKQSHRKSLEWIGGINTNNGGTGYNQKFKGKATLTVDKSSSTAYMELRSLTSEDSAVYFCARGSLYSYGNSYFDYWGQGTLVTVSS VL: QIVLTQSPAIMSASPGEKVTITCSATSSVSYMHWFQQKPGTSPKLWIYGTSNLASGVPARFSGSGSGTSYSLTISRMEAEDAATYYCQQRSSYPFTFGQGTKVEIK
0.903 | 0.391 | HC-M034Y (antibody, V domains shown, CPE single point mutant of parent VH 48.6-HC-WT) VH: EVQLQQSGPELVKPGASVKISCKTSGYTFTEYTYHWMKQSHRKSLEWIGGINTNNGGTGYNQKFKGKATLTVDKSSSTAYMELRSLTSEDSAVYFCARGSLYSYGNSYFDYWGQGTLVTVSS VL: QIVLTQSPAIMSASPGEKVTITCSATSSVSYMHWFQQKPGTSPKLWIYGTSNLASGVPARFSGSGSGTSYSLTISRMEAEDAATYYCQQRSSYPFTFGQGTKVEIK
